± gives the uncertainty stated by the source.
B1: Retinoic acid receptor beta, residues 85 to 161; numbered along this chain, P10826 (parent)
chain: YKPCFVCQDKSSGYHYGVSACEGCKGFFRRSIQKNMIYTCHRDKNCVINKVTRNRCQYCRLQKCFEVGMSKESVRND

Variants of: B1
Test: abundance fitness (aPCA) (normalised: wild type 0, dead -1); higher = more abundant; growth selection in yeast, the domain comes from the species named
Settings: Homo sapiens
YKPCFVCQQKSSGYHYGVSACEGCKGFFRRSIQKNMIYTCHRDKNCVINKVTRNRCQYCRLQKCFEVGMSKESVRND [D9Q] gave an abundance fitness of -0.6 ± 0.15.
YKPCFVCQRKSSGYHYGVSACEGCKGFFRRSIQKNMIYTCHRDKNCVINKVTRNRCQYCRLQKCFEVGMSKESVRND [D9R] gave an abundance fitness of -0.631 ± 0.075.
For YKPCFVCQSKSSGYHYGVSACEGCKGFFRRSIQKNMIYTCHRDKNCVINKVTRNRCQYCRLQKCFEVGMSKESVRND [D9S], the abundance fitness was -0.71 ± 0.11.
With YKPCFVCQTKSSGYHYGVSACEGCKGFFRRSIQKNMIYTCHRDKNCVINKVTRNRCQYCRLQKCFEVGMSKESVRND [D9T] the abundance fitness was -1.01 ± 0.24.
In the case of YKPCFVCQVKSSGYHYGVSACEGCKGFFRRSIQKNMIYTCHRDKNCVINKVTRNRCQYCRLQKCFEVGMSKESVRND [D9V], the abundance fitness is reported as -0.753 ± 0.1.
With YKPCFVCQWKSSGYHYGVSACEGCKGFFRRSIQKNMIYTCHRDKNCVINKVTRNRCQYCRLQKCFEVGMSKESVRND [D9W] the abundance fitness was -0.529 ± 0.083.
YKPCFVCQYKSSGYHYGVSACEGCKGFFRRSIQKNMIYTCHRDKNCVINKVTRNRCQYCRLQKCFEVGMSKESVRND [D9Y] gave an abundance fitness of -0.57 ± 0.14.
YKPCFVCQDASSGYHYGVSACEGCKGFFRRSIQKNMIYTCHRDKNCVINKVTRNRCQYCRLQKCFEVGMSKESVRND [K10A] gave an abundance fitness of 0.147 ± 0.05.
YKPCFVCQDCSSGYHYGVSACEGCKGFFRRSIQKNMIYTCHRDKNCVINKVTRNRCQYCRLQKCFEVGMSKESVRND [K10C] gave an abundance fitness of 0.019 ± 0.086.
YKPCFVCQDDSSGYHYGVSACEGCKGFFRRSIQKNMIYTCHRDKNCVINKVTRNRCQYCRLQKCFEVGMSKESVRND [K10D] gave an abundance fitness of 0.112 ± 0.082.
YKPCFVCQDFSSGYHYGVSACEGCKGFFRRSIQKNMIYTCHRDKNCVINKVTRNRCQYCRLQKCFEVGMSKESVRND [K10F] showed an abundance fitness of 0.026 ± 0.086.
YKPCFVCQDGSSGYHYGVSACEGCKGFFRRSIQKNMIYTCHRDKNCVINKVTRNRCQYCRLQKCFEVGMSKESVRND [K10G] gave an abundance fitness of -0.045 ± 0.041.
For YKPCFVCQDHSSGYHYGVSACEGCKGFFRRSIQKNMIYTCHRDKNCVINKVTRNRCQYCRLQKCFEVGMSKESVRND [K10H], the abundance fitness was 0.024 ± 0.11.
In the case of YKPCFVCQDISSGYHYGVSACEGCKGFFRRSIQKNMIYTCHRDKNCVINKVTRNRCQYCRLQKCFEVGMSKESVRND [K10I], the abundance fitness is reported as 0.154 ± 0.078.
Work on YKPCFVCQDLSSGYHYGVSACEGCKGFFRRSIQKNMIYTCHRDKNCVINKVTRNRCQYCRLQKCFEVGMSKESVRND [K10L] yielded an abundance fitness of 0.043 ± 0.045.
Variant YKPCFVCQDMSSGYHYGVSACEGCKGFFRRSIQKNMIYTCHRDKNCVINKVTRNRCQYCRLQKCFEVGMSKESVRND [K10M] has an abundance fitness of 0.078 ± 0.06.
Variant YKPCFVCQDNSSGYHYGVSACEGCKGFFRRSIQKNMIYTCHRDKNCVINKVTRNRCQYCRLQKCFEVGMSKESVRND [K10N] has an abundance fitness of 0.146 ± 0.085.
With YKPCFVCQDPSSGYHYGVSACEGCKGFFRRSIQKNMIYTCHRDKNCVINKVTRNRCQYCRLQKCFEVGMSKESVRND [K10P] the abundance fitness was -0.03 ± 0.095.
YKPCFVCQDRSSGYHYGVSACEGCKGFFRRSIQKNMIYTCHRDKNCVINKVTRNRCQYCRLQKCFEVGMSKESVRND [K10R] gave an abundance fitness of 0.034 ± 0.04.
Work on YKPCFVCQDSSSGYHYGVSACEGCKGFFRRSIQKNMIYTCHRDKNCVINKVTRNRCQYCRLQKCFEVGMSKESVRND [K10S] yielded an abundance fitness of 0.165 ± 0.05.
Work on YKPCFVCQDTSSGYHYGVSACEGCKGFFRRSIQKNMIYTCHRDKNCVINKVTRNRCQYCRLQKCFEVGMSKESVRND [K10T] yielded an abundance fitness of 0.078 ± 0.054.
Work on YKPCFVCQDVSSGYHYGVSACEGCKGFFRRSIQKNMIYTCHRDKNCVINKVTRNRCQYCRLQKCFEVGMSKESVRND [K10V] yielded an abundance fitness of 0.007 ± 0.042.
YKPCFVCQDWSSGYHYGVSACEGCKGFFRRSIQKNMIYTCHRDKNCVINKVTRNRCQYCRLQKCFEVGMSKESVRND [K10W] showed an abundance fitness of -0.042 ± 0.056.
YKPCFVCQDYSSGYHYGVSACEGCKGFFRRSIQKNMIYTCHRDKNCVINKVTRNRCQYCRLQKCFEVGMSKESVRND [K10Y] showed an abundance fitness of 0.115 ± 0.069.
In the case of YKPCFVCQDKASGYHYGVSACEGCKGFFRRSIQKNMIYTCHRDKNCVINKVTRNRCQYCRLQKCFEVGMSKESVRND [S11A], the abundance fitness is reported as -0.21 ± 0.058.
Work on YKPCFVCQDKCSGYHYGVSACEGCKGFFRRSIQKNMIYTCHRDKNCVINKVTRNRCQYCRLQKCFEVGMSKESVRND [S11C] yielded an abundance fitness of -0.414 ± 0.11.
With YKPCFVCQDKDSGYHYGVSACEGCKGFFRRSIQKNMIYTCHRDKNCVINKVTRNRCQYCRLQKCFEVGMSKESVRND [S11D] the abundance fitness was 0 ± 0.073.
Variant YKPCFVCQDKFSGYHYGVSACEGCKGFFRRSIQKNMIYTCHRDKNCVINKVTRNRCQYCRLQKCFEVGMSKESVRND [S11F] has an abundance fitness of -0.377 ± 0.14.
Variant YKPCFVCQDKGSGYHYGVSACEGCKGFFRRSIQKNMIYTCHRDKNCVINKVTRNRCQYCRLQKCFEVGMSKESVRND [S11G] has an abundance fitness of -0.165 ± 0.044.
YKPCFVCQDKHSGYHYGVSACEGCKGFFRRSIQKNMIYTCHRDKNCVINKVTRNRCQYCRLQKCFEVGMSKESVRND [S11H] showed an abundance fitness of -0.525 ± 0.22.
YKPCFVCQDKISGYHYGVSACEGCKGFFRRSIQKNMIYTCHRDKNCVINKVTRNRCQYCRLQKCFEVGMSKESVRND [S11I] gave an abundance fitness of -0.27 ± 0.16.
YKPCFVCQDKKSGYHYGVSACEGCKGFFRRSIQKNMIYTCHRDKNCVINKVTRNRCQYCRLQKCFEVGMSKESVRND [S11K] gave an abundance fitness of -0.242 ± 0.088.
In the case of YKPCFVCQDKLSGYHYGVSACEGCKGFFRRSIQKNMIYTCHRDKNCVINKVTRNRCQYCRLQKCFEVGMSKESVRND [S11L], the abundance fitness is reported as -0.263 ± 0.058.
YKPCFVCQDKNSGYHYGVSACEGCKGFFRRSIQKNMIYTCHRDKNCVINKVTRNRCQYCRLQKCFEVGMSKESVRND [S11N] showed an abundance fitness of 0.173 ± 0.08.
For YKPCFVCQDKPSGYHYGVSACEGCKGFFRRSIQKNMIYTCHRDKNCVINKVTRNRCQYCRLQKCFEVGMSKESVRND [S11P], the abundance fitness was -0.088 ± 0.086.

Source: the Human Domainome abundance scans (Beltran et al. 2025)
